Measured values reported in PMC4784862, “DNA Sequence Determinants Controlling Affinity, Stability and Shape of DNA Complexes Bound by the Nucleoid Protein Fis”.

Columns and labels:
Conditions in all cases: protein: recombinant; chain copies: 2; label: 5'-32P
Fis WT [1] = biological target: T1, Fis WT (UniProt P0A6R3 1-98); assay: X-ray crystallography; EMSA: 20 mM Hepes pH 7.5, 0.15 M NaCl, 5% glycerol, 0.5 mg/ml BSA, 1 mM EDTA, 1 mM DTT, 0.1 nM 32P 27 bp probe, 50 ug/ml poly dI/dC; temperature not stated
Fis WT [2] = biological target: T1, Fis WT; assay: X-ray crystallography; 3.5 A, partially refined; EMSA: 20 mM Hepes pH 7.5, 0.15 M NaCl, 5% glycerol, 0.5 mg/ml BSA, 1 mM EDTA, 1 mM DTT, 0.1 nM 32P 27 bp probe, 50 ug/ml poly dI/dC; temperature not stated
Fis WT [3] = biological target: T1, Fis WT; assay: X-ray crystallography; 2.7 A; EMSA: 20 mM Hepes pH 7.5, 0.15 M NaCl, 5% glycerol, 0.5 mg/ml BSA, 1 mM EDTA, 1 mM DTT, 0.1 nM 32P 27 bp probe, 50 ug/ml poly dI/dC; temperature not stated
Fis WT [4] = biological target: T1, Fis WT; assay: EMSA; EMSA: 20 mM Hepes pH 7.5, 0.15 M NaCl, 5% glycerol, 0.5 mg/ml BSA, 1 mM EDTA, 1 mM DTT, 0.1 nM 32P 27 bp probe, 50 ug/ml poly dI/dC; temperature not stated
Fis WT [5] = biological target: T1, Fis WT; assay: EMSA; t1/2 4 min; EMSA: 20 mM Hepes pH 7.5, 0.15 M NaCl, 5% glycerol, 0.5 mg/ml BSA, 1 mM EDTA, 1 mM DTT, 0.1 nM 32P 27 bp probe, 50 ug/ml poly dI/dC; temperature not stated
Fis WT [6] = biological target: T1, Fis WT; assay: EMSA; t1/2 <0.25 min; EMSA: 20 mM Hepes pH 7.5, 0.15 M NaCl, 5% glycerol, 0.5 mg/ml BSA, 1 mM EDTA, 1 mM DTT, 0.1 nM 32P 27 bp probe, 50 ug/ml poly dI/dC; temperature not stated
Fis WT [7] = biological target: T1, Fis WT; assay: EMSA; t1/2 4 min; EMSA: 20 mM Hepes pH 7.5, 0.15 M NaCl, 5% glycerol, 0.5 mg/ml BSA, 1 mM EDTA, 1 mM DTT, 0.1 nM 32P 27 bp probe, 50 ug/ml poly dI/dC; temperature not stated; remark: listed apart in the source
Fis R71A = Fis R71A (UniProt P0A6R3 1-98, R71A); assay: EMSA; EMSA: 20 mM Hepes pH 7.5, 0.15 M NaCl, 5% glycerol, 0.5 mg/ml BSA, 1 mM EDTA, 1 mM DTT, 0.1 nM 32P 27 bp probe, 50 ug/ml poly dI/dC; temperature not stated
Fis T75A [8] = biological target: T2, Fis T75A (UniProt P0A6R3 1-98, T75A); assay: EMSA; error as printed; EMSA: 20 mM Hepes pH 7.5, 0.15 M NaCl, 5% glycerol, 0.5 mg/ml BSA, 1 mM EDTA, 1 mM DTT, 0.1 nM 32P 27 bp probe, 50 ug/ml poly dI/dC; temperature not stated
Fis N73A = Fis N73A (UniProt P0A6R3 1-98, N73A); assay: EMSA; EMSA: 20 mM Hepes pH 7.5, 0.15 M NaCl, 5% glycerol, 0.5 mg/ml BSA, 1 mM EDTA, 1 mM DTT, 0.1 nM 32P 27 bp probe, 50 ug/ml poly dI/dC; temperature not stated
Fis WT [9] = biological target: T1, Fis WT; assay: EMSA; t1/2 41 min; Table 3 gives error 0.05; EMSA: 20 mM Hepes pH 7.5, 0.15 M NaCl, 5% glycerol, 0.5 mg/ml BSA, 1 mM EDTA, 1 mM DTT, 0.1 nM 32P 27 bp probe, 50 ug/ml poly dI/dC; temperature not stated
Fis T75A [10] = biological target: T2, Fis T75A; assay: EMSA; EMSA: 20 mM Hepes pH 7.5, 0.15 M NaCl, 5% glycerol, 0.5 mg/ml BSA, 1 mM EDTA, 1 mM DTT, 0.1 nM 32P 27 bp probe, 50 ug/ml poly dI/dC; temperature not stated
Fis WT [11] = biological target: T1, Fis WT; assay: EMSA; t1/2 14 min; EMSA: 20 mM Hepes pH 7.5, 0.15 M NaCl, 5% glycerol, 0.5 mg/ml BSA, 1 mM EDTA, 1 mM DTT, 0.1 nM 32P 27 bp probe, 50 ug/ml poly dI/dC; temperature not stated
Fis WT [12] = biological target: T1, Fis WT; assay: EMSA; affinity as F1, lifetime increased; EMSA: 20 mM Hepes pH 7.5, 0.15 M NaCl, 5% glycerol, 0.5 mg/ml BSA, 1 mM EDTA, 1 mM DTT, 0.1 nM 32P 27 bp probe, 50 ug/ml poly dI/dC; temperature not stated
Fis WT [13] = biological target: T1, Fis WT; assay: EMSA; fold printed as 6; EMSA: 20 mM Hepes pH 7.5, 0.15 M NaCl, 5% glycerol, 0.5 mg/ml BSA, 1 mM EDTA, 1 mM DTT, 0.1 nM 32P 27 bp probe, 50 ug/ml poly dI/dC; temperature not stated
Fis WT [14] = biological target: T1, Fis WT; assay: X-ray crystallography; 2.8 A; EMSA: 20 mM Hepes pH 7.5, 0.15 M NaCl, 5% glycerol, 0.5 mg/ml BSA, 1 mM EDTA, 1 mM DTT, 0.1 nM 32P 27 bp probe, 50 ug/ml poly dI/dC; temperature not stated
Fis WT [15] = biological target: T1, Fis WT; assay: X-ray crystallography; 2.9 A, C2; EMSA: 20 mM Hepes pH 7.5, 0.15 M NaCl, 5% glycerol, 0.5 mg/ml BSA, 1 mM EDTA, 1 mM DTT, 0.1 nM 32P 27 bp probe, 50 ug/ml poly dI/dC; temperature not stated
Fis WT [16] = biological target: T1, Fis WT; assay: EMSA; t1/2 22 min; EMSA: 20 mM Hepes pH 7.5, 0.15 M NaCl, 5% glycerol, 0.5 mg/ml BSA, 1 mM EDTA, 1 mM DTT, 0.1 nM 32P 27 bp probe, 50 ug/ml poly dI/dC; temperature not stated
Fis WT [17] = biological target: T1, Fis WT; assay: EMSA; t1/2 8 min; EMSA: 20 mM Hepes pH 7.5, 0.15 M NaCl, 5% glycerol, 0.5 mg/ml BSA, 1 mM EDTA, 1 mM DTT, 0.1 nM 32P 27 bp probe, 50 ug/ml poly dI/dC; temperature not stated

T2 sequence (P0A6R3 whole entry T75A): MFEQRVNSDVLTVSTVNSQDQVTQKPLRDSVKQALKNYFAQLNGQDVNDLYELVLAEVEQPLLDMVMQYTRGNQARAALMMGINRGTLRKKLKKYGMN
T1 sequence (P0A6R3 whole entry): as the sequence (P0A6R3 whole entry T75A) above, with A75T counted along it
Chain of Fis R71A (P0A6R3 whole entry R71A): as the sequence (P0A6R3 whole entry T75A) above, with R71A, A75T counted along it
Chain of Fis N73A (P0A6R3 whole entry N73A): as the sequence (P0A6R3 whole entry T75A) above, with N73A, A75T counted along it

B1: F1±8A (dsDNA)
DNA 1: AAATTAGTTTGAATTTTGAGCTAATTT
DNA 2: AAATTAGCTCAAAATTCAAACTAATTT
Question: Does B1 bind (Fis WT [1])?
Answer: binds

B2: F36 (dsDNA)
DNA 1: AAATTTGTTTGAATCTCGAGCAAATTT
DNA 2: AAATTTGCTCGAGATTCAAACAAATTT
Question: Does B2 bind (Fis WT [2])?
Answer: binds

B3: F31 (dsDNA)
DNA 1: AAATTTGTAGGAATTTTCTGCAAATTT
DNA 2: AAATTTGCAGAAAATTCCTACAAATTT
Question: Does B3 bind (Fis WT [3])?
Answer: binds

B4: F16 (dsDNA)
DNA 1: GCGGTTGTTTGAATTTTGAGCAACCGC
DNA 2: GCGGTTGCTCAAAATTCAAACAACCGC
Question: Which Kd (Fis WT [4]) does the source give for B4 here?
Answer: 0.5 ± 0.2 nM

B5: F18 (dsDNA)
DNA 1: AAATTTGTTGGAATTTTCAGCAAATTT
DNA 2: AAATTTGCTGAAAATTCCAACAAATTT
Question: Which binding signal (Fis WT [5]) does the source give for B5 here?
Answer: 10 fold weaker than F1

B6: INV±8G (dsDNA)
DNA 1: TTTAAGGTTTGAATTTTGAGCCTTAAA
DNA 2: TTTAAGGCTCAAAATTCAAACCTTAAA
Question: With B6 as the binder, how does the Kd (Fis WT [4]) read?
Answer: 250 ± 20 nM

B7: INV-GAT (dsDNA)
DNA 1: TTTGATGTTTGAATTTTGAGCATCAAA
DNA 2: TTTGATGCTCAAAATTCAAACATCAAA
Question: Which Kd (Fis WT [4]) does the source give for B7 here?
Answer: 2 ± 0.6 nM

B8: INV (dsDNA)
DNA 1: TTTAAAGTTTGAATTTTGAGCTTTAAA
DNA 2: TTTAAAGCTCAAAATTCAAACTTTAAA
Question: With B8 as the binder, how does the Kd (Fis WT [6]) read?
Answer: 33 ± 3 nM

B9: INV±8T (dsDNA)
DNA 1: TTTAATGTTTGAATTTTGAGCATTAAA
DNA 2: TTTAATGCTCAAAATTCAAACATTAAA
Question: B9 was tested. Which Kd (Fis WT [7]) did it give?
Answer: 2.3 ± 0.7 nM

B10: F15 (dsDNA)
DNA 1: CCCTTTGTTTGAATTTTGAGCAAAGGG
DNA 2: CCCTTTGCTCAAAATTCAAACAAAGGG
Question: For B10, which Kd (Fis WT [4]) is on record?
Answer: 0.4 ± 0.2 nM

B11: F14 (dsDNA)
DNA 1: GGGTTTGTTTGAATTTTGAGCAAACCC
DNA 2: GGGTTTGCTCAAAATTCAAACAAACCC
Question: For B11, which Kd (Fis WT [4]) is on record?
Answer: 0.5 ± 0.1 nM

B12: F28 (dsDNA)
DNA 1: AAATTTGTTTGAGCGTTGAGCAAATTT
DNA 2: AAATTTGCTCAACGCTCAAACAAATTT
Question: How did the Kd (Fis R71A) turn out when B12 was run?
Answer: 470 ± 100 nM

B13: F1 (±8T) (dsDNA)
DNA 1: AAATTTGTTTGAATTTTGAGCAAATTT
DNA 2: AAATTTGCTCAAAATTCAAACAAATTT
Question: Which Kd (Fis T75A [8]) does the source give for B13 here?
Answer: 0.3 ± 0.8 nM

Question: And the Kd (Fis R71A)?
Answer: 0.5 ± 0.2 nM

Question: And the Kd (Fis N73A)?
Answer: 29 ± 0.2 nM

Question: What about the Kd (Fis WT [9]) of the same binder?
Answer: 0.2 ± 0.07 nM

B14: F27 (dsDNA)
DNA 1: AAATTTGTTTGAACTTTGAGCAAATTT
DNA 2: AAATTTGCTCAAAGTTCAAACAAATTT
Question: Which Kd (Fis R71A) does the source give for B14 here?
Answer: 2.8 ± 0.5 nM

Question: What about the Kd (Fis T75A [10]) of the same binder?
Answer: 3.5 ± 0.9 nM

Question: And the Kd (Fis WT [4])?
Answer: 0.2 ± 0.1 nM

B15: F1±8C (dsDNA)
DNA 1: AAATTCGTTTGAATTTTGAGCGAATTT
DNA 2: AAATTCGCTCAAAATTCAAACGAATTT
Question: Which Kd (Fis WT [11]) does the source give for B15 here?
Answer: 0.7 ± 0.2 nM

B16: F1±8U (dsDNA)
DNA 1: AAATTUGTTTGAATTTTGAGCAAATTT
DNA 2: AAATTUGCTCAAAATTCAAACAAATTT
modifications: deoxyuridine for T at ±8 in DNA
Question: Does B16 bind (Fis WT [12])?
Answer: binds

B17: INV±8C (dsDNA)
DNA 1: TTTAACGTTTGAATTTTGAGCGTTAAA
DNA 2: TTTAACGCTCAAAATTCAAACGTTAAA
Question: With B17 as the binder, how does the Kd (Fis WT [4]) read?
Answer: 6 ± 2 nM

B18: F33 (dsDNA)
DNA 1: AAAGGTGTTTGAATTTTGAGCACCTTT
DNA 2: AAAGGTGCTCAAAATTCAAACACCTTT
Question: With B18 as the binder, how does the Kd (Fis WT [13]) read?
Answer: 0.6 ± 0.1 nM

B19: F32 (dsDNA)
DNA 1: AAATTTGGAGGAATTTTCTCCAAATTT
DNA 2: AAATTTGGAGAAAATTCCTCCAAATTT
Question: Does B19 bind (Fis WT [14])?
Answer: binds

Question: And the Kd (Fis R71A)?
Answer: 73 ± 11 nM

Question: What about the Kd (Fis T75A [10]) of the same binder?
Answer: 76 ± 10 nM

B20: INV-CAT (dsDNA)
DNA 1: TTTCATGTTTGAATTTTGAGCATGAAA
DNA 2: TTTCATGCTCAAAATTCAAACATGAAA
Question: Which Kd (Fis WT [4]) does the source give for B20 here?
Answer: 2.9 ± 1 nM

B21: F1±8G (dsDNA)
DNA 1: AAATTGGTTTGAATTTTGAGCCAATTT
DNA 2: AAATTGGCTCAAAATTCAAACCAATTT
Question: Does B21 bind (Fis WT [1])?
Answer: binds

Question: And the Kd (Fis R71A)?
Answer: 450 ± 20 nM

Question: And the Kd (Fis T75A [10])?
Answer: 48 ± 5 nM

B22: F35 (dsDNA)
DNA 1: AAATTAGTTTGAATCTCGAGCTAATTT
DNA 2: AAATTAGCTCGAGATTCAAACTAATTT
Question: Does B22 bind (Fis WT [15])?
Answer: binds

B23: F1±9A (dsDNA)
DNA 1: AAATATGTTTGAATTTTGAGCATATTT
DNA 2: AAATATGCTCAAAATTCAAACATATTT
Question: With B23 as the binder, how does the Kd (Fis WT [16]) read?
Answer: 0.5 ± 0.2 nM

B24: F34 (dsDNA)
DNA 1: AAGCTTGTTTGAATTTTGAGCAACGTT
DNA 2: AACGTTGCTCAAAATTCAAACAAGCTT
Question: B24 was tested. Which Kd (Fis WT [17]) did it give?
Answer: 0.2 ± 0.1 nM

B25: INV±9-10T (dsDNA)
DNA 1: TTTATTGTTTGAATTTTGAGCAATAAA
DNA 2: TTTATTGCTCAAAATTCAAACAATAAA
Question: For B25, which Kd (Fis WT [4]) is on record?
Answer: 0.4 ± 0.1 nM
